These results are taken from paper PMC2742502 (Journal of immunology (Baltimore, Md. : 1950), 2008).

For assay [1], the target named is purified HLA A*0201 molecules (with human β2-microglobulin) (human (endogenous in EBV transformed cell lines) | human). Briefly: radioligand binding.
The subject of the next assay is PBMC. Format: cell-based, human.
Assay [2] has as its system T cells from healthy donors. Particulars: heteroclitic HLA-A0201-restricted epitope; cited from earlier work.

The term IC50 denotes the point on the concentration scale where inhibition reaches its midpoint. A high value points to a need for much substance. “HCV NS3 1406-1415 epitope peptide … (Lp5)” gave an IC50 in assay [1] of 5 nM.

Consider phytohemmaglutinin [PHA], for which the “response in positive control” value in the assay on PBMC is given as “uniformly positive”.

B1: Melan-A epitope (L26–35): heteroclitic HLA-A0201-restricted Melan-A epitope (peptide, UniProt Q16655 1-118, looked up, variant A27L)
Melanoma antigen recognized …: MPREDAHFIYGYPKKGHGHSYTTAEELAGIGILTVILGVLLLIGCWYCRRRNGYRALMDKSLHVGTQCALTRRCPQEGFDHRDSKVSLQEKNCEPVVPNAPPAYEKLSAEQSPPPYSP
modifications: epitope 26-35
For B1, the “frequency of T cells recognizing the epitope” value in assay [2] is “relatively frequent”.
